Results taken from paper doi:10.1101/2025.05.22.655525 (bioRxiv, 2025).
Read-outs that look alike come from different tables or passages of the source.

Columns and labels:
crystal structure [1] = target: the molecule itself; assay: crystal structure
crystal structure [2] = target: the molecule itself; assay: crystal structure; remark: listed apart in the source

Protein | binding result (crystal structure [1]) | binding result (crystal structure [2])
human syntenin-1 PDZ tandem (PDZ1-PDZ2), residues 113-276 (domain or fragment, UniProt O00560 113-276, looked up) REVILCKDQDGKIGLRLKSIDNGIFVQLVQANSPASLVGLRFGDQVLQINGENCAGWSSDKAHKVLKQAFGEKITMTIRDRPFERTITMHKDSTGHVGFIFKNGKITSIVKDSSAARNGLLTEHNICEINGQNVIGLKDSQIADILSTSGTVVTITIMPAFIFE | binds | 
human syntenin-1 PDZ tandem (PDZ1-PDZ2), residues 113-273 (domain or fragment, UniProt O00560 113-273, looked up) REVILCKDQDGKIGLRLKSIDNGIFVQLVQANSPASLVGLRFGDQVLQINGENCAGWSSDKAHKVLKQAFGEKITMTIRDRPFERTITMHKDSTGHVGFIFKNGKITSIVKDSSAARNGLLTEHNICEINGQNVIGLKDSQIADILSTSGTVVTITIMPAF |  | binds
